Test results: patent US20230106247A1 (L AND L BIO CO LTD NINGBO CHINA, published 2023)
Where two headings read alike, the source gives them in different places.

Columns and labels:
[1] = target: T1, human Sirpα-V1-hFc (human, UniProt P78324 31-373); experiment: blocking ELISA, competitor CD47-his
T1 construct: range 31-373; also called hSirpα (dimer); hSirpα-V1-hFc (dimer); not shown: human IgG1 Fc region at the C-terminus
Experimental: (§1) The recombinant proteins such as human Sirpα-V1-hFc/Sirpα-V1-his were diluted to concentrations of 5 μg/mL or 2 μg/mL respectively with a PBS buffer at pH 7.4, and then added into a 96-well ELISA plate (Corning, CLS3590-100EA) at a volume of 50 μL/well, and placed in an incubator at 37° C. for 2 hours. After the liquid was discarded, the wells were added with a blocking solution of 5% skimmed milk (skimmed milk powder available from Bright Dairy) diluted with PBS at 230 μL/well, and incubated in an incubator at 37° C. for 3 hours, or placed overnight at 4° C. (for 16-18 hours) for blocking. […] The plate was washed for 5 times, added with 50 μL/well of streptavidin-HRP (GenScript, M00091) or anti-his-HRP secondary antibody (GenScript, A00612) diluted at 1:1000, incubated at 37° C. for 1 hour, and then washed with PBST for 5 times. Each well was added with 50 μL of TMB (Surmodic, Cat #: TTMB-1000-01) for color development, and added with 50 μL/well of 1 M H₂SO₄ to stop the reaction. The readings on a microplate reader (MultiskanGO Thermo, Model 51119200) were subjected to data analysis by GraphPad prism 5.

[2] = target: T2, human T cells (expressing Sirpγ) (human, UniProt Q9P1W8 29-387); experiment: flow cytometry on PBMC
T2 construct: whole, on cells; The target as printed is the cell; also called human PBMCs (T cells)
Experimental: The cryopreserved PBMC cells were taken, thawed at 37° C., then added into 3 mL of a FACS buffer (1×PBS+2% FBS), and centrifuged at 1,000 rpm for 5 min, the supernatant was discarded, the cells were resuspended in the FACS buffer for counting, and the density was adjusted to 1×10⁶ cells/mL. PBMCs were added into a U-shaped 96-well plate at 100 μL cells/well, and added with the antibody to be detected so that the final concentrations thereof are 10 μg/mL, 1 μg/mL and 0 μg/mL respectively. They were mixed uniformly, then incubated at room temperature for 20 min, and centrifuged at 2,000 rpm for 5 min. The supernatant was discarded, and the cell pellet was resuspended by adding 100 μL of the FACS buffer, and centrifuged at 2,000 rpm for 5 min. […] The mixture was centrifuged at 2,000 rpm for 5 min. The supernatant was discarded, and the cell pellet was washed once with 100 μL of the FACS buffer, resuspended with 100 μL of the FACS buffer, and read by a flow cytometer (Novosampler™ pro, model: NS200). The assay data was processed with NovoExpress. Taking the sample well with the antibody concentration of 0 μg/mL as the negative control, based on this, the proportion of T cells specifically bound with the antibody to be tested was calculated.

[3] = target: T3, human Sirpα-V1-his (human, UniProt P78324 31-373); experiment: blocking ELISA, competitor CD47-hFc
T3 construct: range 31-373; Bought (Sino Biological 11612-H08H) or expressed in-house; also called hSirpα-V1; hSirpα-V1-his
Experimental: The antigens PD-1 and Sirpα expressed according to the method of Example 1 were diluted with a PBS buffer at pH7.4 to a concentration of 2 μg/mL, added into a 96-well ELISA plate (Corning, CLS3590-100EA) at a volume of 50 μL/well, and incubated at 37° C. for 2 hours. After the liquid was discarded, the wells were added with a blocking solution of 5% skimmed milk (Sangon Biotech (Shanghai) Co., Ltd., A600669-0250) formulated with PBS at 200 μL/well, and incubated at 37° C. for 3 hours for blocking. […] The plate was washed with PBST for 5 times, added with 50 μL/well of HRP-labeled secondary antibody (GenScript Biotechnology Co., Ltd., M00091) diluted at 1:1000, and incubated at 37° C. for 1 hour. The plated was washed with PBST for 5 times, then added with 50 μl/well of TMB chromogenic substrate (KPL, 52-00-03), incubated at room temperature for 5-10 min, added with 50 μl/well of 1 M H₂SO₄ to stop the reaction, and read by a […] Go microplate reader (ThermoFisher, 51119200) for the absorbance value at 450 nm, and then IC₅₀ was calculated according to the OD value.

[4] = target: T1, human Sirpα-V1-hFc; experiment: blocking ELISA, competitor CD47-his; remark: listed apart in the source
Experimental: as §1

[5] = target: T3, human Sirpα-V1-his; experiment: ELISA
Experimental: The self-expressed human PD-1, Sirpα and the like antigens of the present disclosure were diluted with a PBS buffer at pH7.4 to a concentration of 2 μg/mL according to different assays, and then added into a 96-well ELISA plate (Corning, CLS3590-100EA) at a volume of 50 μL/well, and placed in an incubator at 37° C. for 2 hours. After the liquid was discarded, the wells were added with a blocking solution of 5% skimmed milk (Sangon Biotech (Shanghai) Co., Ltd., A600669-0250) diluted with PBS at 200 μL/well, and incubated in an incubator at 37° C. for 3 hours, or placed overnight at 4° C. (for 16-18 hours) for blocking. The blocking solution was discarded, and the plate was washed with a PBST buffer (pH7.4 PBS containing 0.05% tween-20) for 5 times, then added with 50 μL/well of 5-fold serial dilution of the antibody to be tested in 1% BSA, and incubated at 37° C. for 1 hour. […] The plated was washed with PBST for 5 times, then added with 50 μL/well of TMB chromogenic substrate (KPL, 52-00-03), incubated at room temperature for 5-10 min, added with 50 μL/well of 1 M H₂SO₄ to stop the reaction, and read by a […] Go microplate reader (ThermoFisher, 51119200) for the absorbance value at 450 nm, and then EC₅₀ was calculated according to the OD value.
The aforementioned bispecific antibodies were cloned, expressed and purified according to the cloning, expression and purification methods of Example 1 of the present disclosure.

T2 sequence (Q9P1W8 29-387): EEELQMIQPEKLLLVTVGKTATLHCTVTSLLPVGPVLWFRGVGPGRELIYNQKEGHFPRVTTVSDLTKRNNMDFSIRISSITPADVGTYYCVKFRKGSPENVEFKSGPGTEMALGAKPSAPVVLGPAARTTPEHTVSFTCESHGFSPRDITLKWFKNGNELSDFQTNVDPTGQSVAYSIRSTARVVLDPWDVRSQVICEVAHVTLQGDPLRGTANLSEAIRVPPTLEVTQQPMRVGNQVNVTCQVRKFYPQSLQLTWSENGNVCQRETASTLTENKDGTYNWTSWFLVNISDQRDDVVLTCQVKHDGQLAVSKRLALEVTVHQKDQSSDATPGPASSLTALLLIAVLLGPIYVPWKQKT

IC50 [1]: 4.81 nM
IC50 [3]: 6.14 nM
IC50 [4]: 5.92 nM
EC50 [5]: 0.077 nM
B1: humanized antibody mab14-h16 (antibody, human IgG4 S228P, kappa, V domains shown)
VH: QVQLVQSGAEVKKPGASVKVSCKASGYNFNIYWINWVRQAPGQGLEWIGNIYPSSISTNYNEKFKTRATLTVDKSTSTVYMELSSLRSEDTAVYYCARSEGTYYGGRYEGDWFGYWGQGTLVTVSS
VL: DIQMTQSPSSLSASVGDRVTITCRASQDIRNYLNWYQQKPGKAPKLLIYFTSTLHSGVPSRFSGSGSGTDFTLTISSLQPEDFATYYCQQGNTLPWTFGGGTKVEIKR
notes: hIgG4, κ
binding result [2]: no binding (tested: negative control 1.67%)
